The chains are these.
B1: ZNF263 (parent)
chain: RTHTGEKPYKCTLCGENFSHRSNL
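Also: lentivirally expressed fusions sorted by FACS into six bins by GFP to DsRed ratio, PSI derived from sequencing read proportions per bin multiplied by bin number.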

Variants of B1 are the subject of the data set. Description: protein stability index of a GFP-peptide fusion (GPS, HEK-293T) (PSI 1-6); higher = more stable. The settings on record: c terminus: a fixed tail appended.
Turning to RTTTGEKPYKCTLCGENFSHRSNL, the protein stability index was found to be 1.93.

As for RTNTGEKPYKCTLCGENFSHRSNL, the protein stability index amounted to 1.97.

As for RTYTGEKPYKCTLCGENFSHRSNL, the protein stability index worked out at 1.93.

In the case of RTGTGEKPYKCTLCGENFSHRSNL, the protein stability index was found to be 1.93.

Consider RTQTGEKPYKCTLCGENFSHRSNL, for which the protein stability index was determined as 2.31.

As for RTKTGEKPYKCTLCGENFSHRSNL, the protein stability index was found to be 2.05.

With RTITGEKPYKCTLCGENFSHRSNL, the protein stability index is 2.58.

As to RTMTGEKPYKCTLCGENFSHRSNL, the protein stability index came out at 2.19.

On to RTWTGEKPYKCTLCGENFSHRSNL, for which the protein stability index amounted to 1.41.

For RTRTGEKPYKCTLCGENFSHRSNL, the protein stability index amounted to 2.58.

Regarding RTDTGEKPYKCTLCGENFSHRSNL, the protein stability index came to 2.06.

RTFTGEKPYKCTLCGENFSHRSNL: the protein stability index stood at 2.15.

For the variant RTCTGEKPYKCTLCGENFSHRSNL, the protein stability index stood at 1.61.

Regarding RTLTGEKPYKCTLCGENFSHRSNL, the protein stability index is 2.35.

RTPTGEKPYKCTLCGENFSHRSNL: the protein stability index amounted to 2.

Turning to RTETGEKPYKCTLCGENFSHRSNL, the protein stability index was 1.74.

With RTATGEKPYKCTLCGENFSHRSNL, the protein stability index was determined as 2.27.

As for RTSTGEKPYKCTLCGENFSHRSNL, the protein stability index was 2.18.

In the case of YTHTGEKPYKCTLCGENFSHRSNL, the protein stability index came to 2.17.

For KTHTGEKPYKCTLCGENFSHRSNL, the protein stability index is 2.22.

On to WTHTGEKPYKCTLCGENFSHRSNL, for which the protein stability index amounted to 1.99.

With DTHTGEKPYKCTLCGENFSHRSNL, the protein stability index turned out to be 1.93.

On to MTHTGEKPYKCTLCGENFSHRSNL, for which the protein stability index was 1.38.

Take FTHTGEKPYKCTLCGENFSHRSNL: the protein stability index came to 2.41.

On to CTHTGEKPYKCTLCGENFSHRSNL, for which the protein stability index came out at 3.43.

On to VTHTGEKPYKCTLCGENFSHRSNL, for which the protein stability index was 2.27.

Turning to ATHTGEKPYKCTLCGENFSHRSNL, the protein stability index worked out at 2.03.

Take ITHTGEKPYKCTLCGENFSHRSNL: the protein stability index is 2.12.

HTHTGEKPYKCTLCGENFSHRSNL: the protein stability index worked out at 3.08.

In the case of NTHTGEKPYKCTLCGENFSHRSNL, the protein stability index stood at 1.69.

STHTGEKPYKCTLCGENFSHRSNL: the protein stability index came to 1.89.

Regarding LTHTGEKPYKCTLCGENFSHRSNL, the protein stability index is 2.39.

PTHTGEKPYKCTLCGENFSHRSNL: the protein stability index was determined as 1.98.

On to GTHTGEKPYKCTLCGENFSHRSNL, for which the protein stability index was found to be 1.8.

Consider TTHTGEKPYKCTLCGENFSHRSNL, for which the protein stability index worked out at 1.99.

Consider ETHTGEKPYKCTLCGENFSHRSNL, for which the protein stability index turned out to be 2.13.

As to QTHTGEKPYKCTLCGENFSHRSNL, the protein stability index came to 1.79.

For the variant RTHTWEKPYKCTLCGENFSHRSNL, the protein stability index was determined as 2.4.

Turning to RTHTREKPYKCTLCGENFSHRSNL, the protein stability index worked out at 2.2.

For the variant RTHTKEKPYKCTLCGENFSHRSNL, the protein stability index is 2.37.

For RTHTLEKPYKCTLCGENFSHRSNL, the protein stability index was found to be 1.88.

Consider RTHTDEKPYKCTLCGENFSHRSNL, for which the protein stability index is 2.05.

Regarding RTHTIEKPYKCTLCGENFSHRSNL, the protein stability index turned out to be 2.06.

As for RTHTVEKPYKCTLCGENFSHRSNL, the protein stability index turned out to be 1.83.

Take RTHTMEKPYKCTLCGENFSHRSNL: the protein stability index worked out at 2.13.

As to RTHTHEKPYKCTLCGENFSHRSNL, the protein stability index came out at 2.22.

On to RTHTEEKPYKCTLCGENFSHRSNL, for which the protein stability index was found to be 2.46.

RTHTCEKPYKCTLCGENFSHRSNL: the protein stability index was 3.14.

Turning to RTHTAEKPYKCTLCGENFSHRSNL, the protein stability index is 1.59.

RTHTFEKPYKCTLCGENFSHRSNL: the protein stability index amounted to 1.86.

With RTHTNEKPYKCTLCGENFSHRSNL, the protein stability index was 2.3.

With RTHTPEKPYKCTLCGENFSHRSNL, the protein stability index stood at 1.88.

As to RTHTQEKPYKCTLCGENFSHRSNL, the protein stability index is 2.46.

As for RTHTSEKPYKCTLCGENFSHRSNL, the protein stability index was 1.7.

RTHTYEKPYKCTLCGENFSHRSNL: the protein stability index is 1.63.

For the variant RTHTTEKPYKCTLCGENFSHRSNL, the protein stability index stood at 2.24.

Turning to RTHEGEKPYKCTLCGENFSHRSNL, the protein stability index came to 2.77.

For RTHPGEKPYKCTLCGENFSHRSNL, the protein stability index was found to be 2.34.

Consider RTHMGEKPYKCTLCGENFSHRSNL, for which the protein stability index turned out to be 2.1.

With RTHVGEKPYKCTLCGENFSHRSNL, the protein stability index worked out at 1.69.

As to RTHAGEKPYKCTLCGENFSHRSNL, the protein stability index was determined as 2.47.

For RTHIGEKPYKCTLCGENFSHRSNL, the protein stability index was 1.82.

In the case of RTHHGEKPYKCTLCGENFSHRSNL, the protein stability index came to 1.91.

RTHNGEKPYKCTLCGENFSHRSNL: the protein stability index came out at 2.1.

As for RTHRGEKPYKCTLCGENFSHRSNL, the protein stability index stood at 3.78.

With RTHDGEKPYKCTLCGENFSHRSNL, the protein stability index came out at 1.87.

Take RTHCGEKPYKCTLCGENFSHRSNL: the protein stability index amounted to 2.04.

Consider RTHLGEKPYKCTLCGENFSHRSNL, for which the protein stability index is 1.79.

As for RTHYGEKPYKCTLCGENFSHRSNL, the protein stability index was 2.43.

On to RTHKGEKPYKCTLCGENFSHRSNL, for which the protein stability index came out at 2.43.

With RTHQGEKPYKCTLCGENFSHRSNL, the protein stability index was found to be 2.01.

RTHFGEKPYKCTLCGENFSHRSNL: the protein stability index worked out at 2.05.

Turning to RTHGGEKPYKCTLCGENFSHRSNL, the protein stability index worked out at 2.02.

Turning to RTHWGEKPYKCTLCGENFSHRSNL, the protein stability index was determined as 1.75.

For RTHSGEKPYKCTLCGENFSHRSNL, the protein stability index stood at 2.03.

RHHTGEKPYKCTLCGENFSHRSNL: the protein stability index was determined as 2.21.

In the case of RMHTGEKPYKCTLCGENFSHRSNL, the protein stability index came to 1.97.

For the variant RSHTGEKPYKCTLCGENFSHRSNL, the protein stability index worked out at 2.1.

For the variant RVHTGEKPYKCTLCGENFSHRSNL, the protein stability index is 2.52.

In the case of RAHTGEKPYKCTLCGENFSHRSNL, the protein stability index is 2.02.

Regarding RPHTGEKPYKCTLCGENFSHRSNL, the protein stability index came to 2.34.

For RFHTGEKPYKCTLCGENFSHRSNL, the protein stability index was found to be 1.73.

As to RRHTGEKPYKCTLCGENFSHRSNL, the protein stability index stood at 3.06.

Regarding RLHTGEKPYKCTLCGENFSHRSNL, the protein stability index came to 2.17.

RQHTGEKPYKCTLCGENFSHRSNL: the protein stability index was 2.02.

As for RWHTGEKPYKCTLCGENFSHRSNL, the protein stability index was found to be 2.35.

With RIHTGEKPYKCTLCGENFSHRSNL, the protein stability index came out at 1.98.

As for RGHTGEKPYKCTLCGENFSHRSNL, the protein stability index is 1.74.

With RCHTGEKPYKCTLCGENFSHRSNL, the protein stability index turned out to be 2.07.

As to RDHTGEKPYKCTLCGENFSHRSNL, the protein stability index was determined as 2.

On to RNHTGEKPYKCTLCGENFSHRSNL, for which the protein stability index turned out to be 2.28.

Take RKHTGEKPYKCTLCGENFSHRSNL: the protein stability index came out at 2.7.

Take REHTGEKPYKCTLCGENFSHRSNL: the protein stability index was 1.76.

In the case of RYHTGEKPYKCTLCGENFSHRSNL, the protein stability index is 1.45.

Values taken from the supplement of paper PMC10567573.
